# Assays:
# HLA-A*02:01 [1] = assay: IEDB peptide-MHC binding, purified MHC/competitive/fluorescence; filed as Kd, often an IC50 or EC50 that approximates it; ≥ and ≤ were set here for values at or beyond the usual limits of such assays
# HLA-A*02:03 [2] = assay: as above
# HLA-A*02:11 = assay: as above
# HLA-A*02:12 = assay: as above
# HLA-A*02:16 = assay: as above
# HLA-A*02:19 = assay: as above
# HLA-A*03:01 = assay: as above
# HLA-A*26:01 = assay: as above
# HLA-A*29:02 = assay: as above
# HLA-A*68:02 [3] = assay: as above
# HLA-A*69:01 = assay: as above
# HLA-B*15:01 = assay: as above
# HLA-B*18:01 = assay: as above
# HLA-B*27:03 = assay: as above
# HLA-B*39:01 = assay: as above
# HLA-B*46:01 = assay: as above
# HLA-B*51:01 = assay: as above
# HLA-B*57:01 = assay: as above
# HLA-A*24:03 = assay: as above
# HLA-A*02:01 [4] = assay: IEDB peptide-MHC binding, purified MHC/direct/fluorescence; filed as Kd, often an IC50 or EC50 that approximates it; ≥ and ≤ were set here for values at or beyond the usual limits of such assays; conditions: source organism: Human herpesvirus 4 strain B95-8
# HLA-A*32:15 = assay: IEDB peptide-MHC binding, purified MHC/competitive/fluorescence; filed as Kd, often an IC50 or EC50 that approximates it; ≥ and ≤ were set here for values at or beyond the usual limits of such assays
# HLA-A*68:23 = assay: as above
# HLA-B*15:42 = assay: as above
# HLA-B*45:06 = assay: as above
# HLA-B*83:01 = assay: as above
# HLA-C*05:01 = assay: IEDB peptide-MHC binding, purified MHC/direct/fluorescence; filed as Kd, often an IC50 or EC50 that approximates it; ≥ and ≤ were set here for values at or beyond the usual limits of such assays
# HLA-C*06:02 = assay: as above
# HLA-B*58:01 = assay: IEDB peptide-MHC binding, purified MHC/competitive/fluorescence; filed as Kd, often an IC50 or EC50 that approximates it; ≥ and ≤ were set here for values at or beyond the usual limits of such assays
# HLA-C*08:02 = assay: IEDB peptide-MHC binding, purified MHC/direct/fluorescence; filed as Kd, often an IC50 or EC50 that approximates it; ≥ and ≤ were set here for values at or beyond the usual limits of such assays
# HLA-C*14:02 = assay: as above; conditions: source organism: dengue virus type 1
# HLA-A*02:01 [5] = assay: IEDB peptide-MHC binding, purified MHC/competitive/radioactivity; filed as Kd, often an IC50 or EC50 that approximates it; ≥ and ≤ were set here for values at or beyond the usual limits of such assays; conditions: source organism: Dengue virus 2 Jamaica/1409/1983
# HLA-A*02:03 [6] = assay: as above; conditions: source organism: Dengue virus 2 Jamaica/1409/1983
# HLA-A*02:06 = assay: as above; conditions: source organism: Dengue virus 2 Jamaica/1409/1983
# HLA-A*02:17 = assay: as above; conditions: source organism: Dengue virus 2 Jamaica/1409/1983
# HLA-A*68:02 [7] = assay: as above; conditions: source organism: Dengue virus 2 Jamaica/1409/1983
# HLA-A*23:01 = assay: IEDB peptide-MHC binding, purified MHC/competitive/fluorescence; filed as Kd, often an IC50 or EC50 that approximates it; ≥ and ≤ were set here for values at or beyond the usual limits of such assays
# HLA-B*15:17 = assay: as above; conditions: source organism: Entamoeba histolytica HM-1:IMSS
# HLA-A*01:01 = assay: IEDB peptide-MHC binding, purified MHC/direct/fluorescence; filed as Kd, often an IC50 or EC50 that approximates it; ≥ and ≤ were set here for values at or beyond the usual limits of such assays; conditions: source organism: Giardia lamblia ATCC 50803
# HLA-C*04:01 = assay: IEDB peptide-MHC binding, purified MHC/competitive/fluorescence; filed as Kd, often an IC50 or EC50 that approximates it; ≥ and ≤ were set here for values at or beyond the usual limits of such assays; conditions: source organism: Giardia lamblia ATCC 50803
# [8] = source organism: Vibrio cholerae 2740-80
# [9] = source organism: Mycobacterium tuberculosis variant bovis BCG str. Pasteur 1173P2
# [10] = source organism: human gammaherpesvirus 4
# [11] = source organism: Vibrio antiquarius
# [12] = source organism: dengue virus type 1
# [13] = source organism: Entamoeba histolytica HM-1:IMSS
# [14] = source organism: Giardia lamblia ATCC 50803
# [15] = source organism: Human herpesvirus 4 strain B95-8
sequence,measurement,setting,value
CERYGFPAS,Kd,HLA-A*02:01 [1]; [8],≥ 20 µM
same,Kd,HLA-A*02:03 [2]; [8],≥ 20 µM
same,Kd,HLA-A*02:11; [8],≥ 20 µM
same,Kd,HLA-A*02:12; [8],≥ 20 µM
same,Kd,HLA-A*02:16; [8],≥ 20 µM
same,Kd,HLA-A*02:19; [8],≥ 20 µM
same,Kd,HLA-A*03:01; [8],≥ 20 µM
same,Kd,HLA-A*26:01; [8],≥ 20 µM
same,Kd,HLA-A*29:02; [8],≥ 20 µM
same,Kd,HLA-A*68:02 [3]; [8],≥ 20 µM
same,Kd,HLA-A*69:01; [8],≥ 20 µM
same,Kd,HLA-B*15:01; [8],≥ 20 µM
same,Kd,HLA-B*18:01; [8],0.0433 µM
same,Kd,HLA-B*27:03; [8],≥ 20 µM
same,Kd,HLA-B*39:01; [8],≥ 20 µM
same,Kd,HLA-B*46:01; [8],≥ 20 µM
same,Kd,HLA-B*51:01; [8],≥ 20 µM
same,Kd,HLA-B*57:01; [8],≥ 20 µM
DEGFHAATV,Kd,HLA-A*02:01 [1]; [9],≥ 20 µM
same,Kd,HLA-A*02:03 [2]; [9],≥ 20 µM
same,Kd,HLA-A*02:11; [9],≥ 20 µM
same,Kd,HLA-A*02:12; [9],≥ 20 µM
same,Kd,HLA-A*02:16; [9],≥ 20 µM
same,Kd,HLA-A*02:19; [9],≥ 20 µM
same,Kd,HLA-A*03:01; [9],≥ 20 µM
same,Kd,HLA-A*24:03; [9],≥ 20 µM
same,Kd,HLA-A*26:01; [9],≥ 20 µM
same,Kd,HLA-A*29:02; [9],≥ 20 µM
same,Kd,HLA-B*15:01; [9],≥ 20 µM
same,Kd,HLA-B*18:01; [9],0.0788 µM
same,Kd,HLA-B*27:03; [9],≥ 20 µM
same,Kd,HLA-B*39:01; [9],≥ 20 µM
same,Kd,HLA-B*46:01; [9],≥ 20 µM
same,Kd,HLA-B*57:01; [9],≥ 20 µM
EVFFGLSRY,Kd,HLA-A*02:01 [4],≥ 10 µM
same,Kd,HLA-A*32:15; [10],0.0269 µM
same,Kd,HLA-A*68:23; [10],≤ 0.0001 µM
same,Kd,HLA-B*15:42; [10],≥ 5 µM
same,Kd,HLA-B*45:06; [10],≥ 5 µM
same,Kd,HLA-B*83:01; [10],≥ 5 µM
FAMTVPLLI,Kd,HLA-C*05:01; [11],≤ 0.001 µM
same,Kd,HLA-C*06:02; [11],0.026 µM
same,Kd,HLA-A*02:01 [1]; [11],0.0027 µM
same,Kd,HLA-B*15:01; [11],≥ 20 µM
same,Kd,HLA-B*39:01; [11],0.009 µM
same,Kd,HLA-B*51:01; [11],0.126 µM
same,Kd,HLA-B*58:01; [11],0.0014 µM
FTMRLLSPV,Kd,HLA-C*05:01; [12],2.29 µM
same,Kd,HLA-C*06:02; [12],≥ 20 µM
same,Kd,HLA-C*08:02; [12],0.316 µM
same,Kd,HLA-C*14:02,0.098 µM
same,Kd,HLA-A*32:15; [12],0.116 µM
same,Kd,HLA-B*15:42; [12],≥ 5 µM
same,Kd,HLA-B*45:06; [12],≥ 5 µM
same,Kd,HLA-B*46:01; [12],0.015 µM
same,Kd,HLA-B*83:01; [12],≥ 5 µM
same,Kd,HLA-A*02:01 [5],0.00156 µM
same,Kd,HLA-A*02:03 [6],0.00344 µM
same,Kd,HLA-A*02:06,0.00432 µM
same,Kd,HLA-A*02:17,0.0298 µM
same,Kd,HLA-A*68:02 [7],0.00078 µM
KVSVGSYFC,Kd,HLA-A*02:01 [1]; [13],≥ 20 µM
same,Kd,HLA-A*02:03 [2]; [13],≥ 20 µM
same,Kd,HLA-A*02:11; [13],≥ 20 µM
same,Kd,HLA-A*02:12; [13],≥ 20 µM
same,Kd,HLA-A*02:16; [13],9 µM
same,Kd,HLA-A*02:19; [13],≥ 20 µM
same,Kd,HLA-A*03:01; [13],≥ 20 µM
same,Kd,HLA-A*23:01; [13],≥ 20 µM
same,Kd,HLA-A*24:03; [13],≥ 20 µM
same,Kd,HLA-A*26:01; [13],≥ 20 µM
same,Kd,HLA-A*29:02; [13],≥ 20 µM
same,Kd,HLA-A*68:02 [3]; [13],≥ 20 µM
same,Kd,HLA-A*69:01; [13],≥ 20 µM
same,Kd,HLA-B*15:01; [13],≥ 20 µM
same,Kd,HLA-B*15:17,≥ 20 µM
same,Kd,HLA-B*18:01; [13],≥ 20 µM
same,Kd,HLA-B*27:03; [13],≥ 20 µM
same,Kd,HLA-B*39:01; [13],≥ 20 µM
same,Kd,HLA-B*46:01; [13],≥ 20 µM
same,Kd,HLA-B*51:01; [13],≥ 20 µM
same,Kd,HLA-B*57:01; [13],≥ 20 µM
MTDVDLNYY,Kd,HLA-A*01:01,≤ 0.001 µM
same,Kd,HLA-C*08:02; [14],≥ 20 µM
same,Kd,HLA-A*68:23; [14],0.002 µM
same,Kd,HLA-B*15:42; [14],≥ 5 µM
same,Kd,HLA-B*45:06; [14],≥ 5 µM
same,Kd,HLA-B*83:01; [14],≥ 5 µM
same,Kd,HLA-C*04:01,≥ 5 µM
VSFIEFVGW,Kd,HLA-A*23:01; [15],0.0629 µM
same,Kd,HLA-B*57:01; [15],0.0249 µM
same,Kd,HLA-B*58:01; [15],0.0011 µM
